# According to patent US20210284725A1 (Genentech, published 2021):
# Numbering of substitutions follows the chain as printed.
# T1: human IL-33 (human, UniProt O95760 112-270, limits assumed)
# T1 sequence (looked up): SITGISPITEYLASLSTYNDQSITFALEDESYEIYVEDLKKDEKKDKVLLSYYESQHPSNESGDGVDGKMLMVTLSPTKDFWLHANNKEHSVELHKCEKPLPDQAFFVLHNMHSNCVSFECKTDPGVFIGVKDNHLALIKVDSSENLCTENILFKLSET
# T2: cyno IL-33 (cynomolgus monkey, UniProt A0A2K5W3I1 112-269)
# T2 sequence: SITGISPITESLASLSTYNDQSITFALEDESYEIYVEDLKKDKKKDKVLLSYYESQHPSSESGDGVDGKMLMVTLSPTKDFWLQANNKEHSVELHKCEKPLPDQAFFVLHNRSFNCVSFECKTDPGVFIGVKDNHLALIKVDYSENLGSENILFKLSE
# T3: rat IL-33 (His-tagged) (rat, UniProt Q66H70 109-264, limits assumed)
# T3 construct: not shown: His tag
# T3 sequence (looked up): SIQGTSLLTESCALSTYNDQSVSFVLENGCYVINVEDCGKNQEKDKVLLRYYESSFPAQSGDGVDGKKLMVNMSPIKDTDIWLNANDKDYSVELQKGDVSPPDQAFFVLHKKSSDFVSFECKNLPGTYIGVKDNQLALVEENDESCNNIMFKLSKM
# T4: mouse IL-33 (His-tagged) (mouse, UniProt Q8BVZ5 109-266)
# T4 construct: also called murine IL-33; not shown: His tag
# T4 sequence (looked up): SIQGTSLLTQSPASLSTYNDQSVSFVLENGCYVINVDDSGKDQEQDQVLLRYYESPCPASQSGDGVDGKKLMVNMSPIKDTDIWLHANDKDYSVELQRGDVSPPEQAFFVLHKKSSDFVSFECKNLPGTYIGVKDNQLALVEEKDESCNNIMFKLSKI
# T5: cyno IL-33 (His-tagged) (cynomolgus monkey, UniProt A0A2K5W3I1 112-269)
# T5 construct: not shown: His tag
# T5 sequence: T2 sequence
# T6: human IL-33 (His-tagged) (human, UniProt O95760 112-270, limits assumed)
# T6 construct: not shown: His tag
# T6 sequence (looked up): T1 sequence (looked up)
# B1: rat anti-human IL-33 hybridoma antibody 1E1 (antibody, V domains shown)
# VH: EVQLVESGGGLVQPGTSLKLSCLASGFTFNNYWMTWIRQAPGKGLEWIASITYTGGGTYYPDSVKGRFTISRDDAKSTLYLQMNSLRSEDTATYYCTRANYYYNTYGGFPYWGQGTLVTVSS
# VL: DIQMTQSPASLSASLGETVSIECLASEGFSNDLAWYQQKSGKSPQLLIYAASRLQDGVPSRFSGSGSGTRFSLKISGMQPEDEADYFCQQGSKYPLTFGSGTKLEIK
# notes: Purified rat hybridoma IgG; also called clone 1E1; hybridoma derived clone 1E1
# B2: 1E1v8 Fab (Fab, V domains shown)
# VH: B1 VH with T16G, K19R, L23A, I48V, T78S, S88A, T93V
# VL: DIQMTQSPSSLSASVGDRVTITCLASEGFSNDLAWYQQKPGKSPKLLIYAASRLQDGVPSRFSGSGSGTDFTLTISSLQPEDFATYFCQQGSKYPLTFGGGTKVEIK
# notes: also called 1E1v8 human Fab; anti-IL-33 1E1v8 Fab
# How the values were obtained:
# human IL-33 = biological target: T1, human IL-33; test: cell-based or functional assay
# cyno IL-33 = biological target: T2, cyno IL-33; test: cell-based or functional assay
# rat IL-33 (His-tagged) = biological target: T3, rat IL-33 (His-tagged); test: SPR Biacore T200, antibody captured on anti-rat Fc, His-tagged IL-33 analyte, 25 C, 1:1 Langmuir
# Description: (§1) The binding kinetics of top anti-IL-33 antibodies were measured using SPR on a BIACORE® T200 instrument (GE Healthcare). A CM5 Series S sensorchip was coated with anti-rat Fc (Jackson) to create a capture surface. Antibody binding was measured to human, cyno, rat, mouse and oxidized IL-33 (His-tagged) using a concentration series starting with 50 nM with 1:3 dilutions. Sensorgrams for binding of cytokine were recorded using an injection time of 2 min with a flow rate of 30 μl/min, at a temperature of 25° C., and with a running buffer of 10 mM HEPES, pH 7.4, 150 mM NaCl, 3 mM EDTA, and 0.005% TWEEN®20. After injection, disassociation of the IL-33 from the antibody was monitored for 10 min in running buffer. The surface was regenerated between binding cycles with a 30μ injection of 10 mM glycine HCl pH 1.7. After subtraction of a blank which contained running buffer only, sensorgrams observed for cytokine binding to anti-IL-33 antibody were analyzed using a 1:1 Langmuir binding model with software supplied by the manufacturer to calculate the kinetics and binding constants.
# mouse IL-33 (His-tagged) = biological target: T4, mouse IL-33 (His-tagged); test: as above
# Description: as §1
# cyno IL-33 (His-tagged) [1] = biological target: T5, cyno IL-33 (His-tagged); test: as above
# Description: as §1
# human IL-33 (His-tagged) [2] = biological target: T6, human IL-33 (His-tagged); test: as above
# Description: as §1
# cyno IL-33 (His-tagged) [3] = biological target: T5, cyno IL-33 (His-tagged); test: SPR Biacore 8k, Fab amine-coupled to CM5 chip, His-tagged IL-33 analyte, 35 C, 1:1 Langmuir
# Description: (§2) The binding kinetics of the 1E1v8 Fab were measured using SPR on a BIACORE® 8k instrument (GE Healthcare). 1E1v8 Fab was directly immobilized on 4 different flow cells of a CM5 Series S sensorchip at low density using amine coupling. Antibody fragment binding was measured to human and cyno IL-33 (His-tagged) using a concentration series starting with 50 nM with 1:3 dilutions. Sensorgrams for binding of IL-33 were recorded using an injection time of 2 min with a flow rate of 100 μl/min, at a temperature of 25° C. or 35° C., and with a running buffer of 10 mM HEPES, pH 7.4, 150 mM NaCl, 3 mM EDTA, and 0.005% TWEEN®20. After injection, disassociation of the IL-33 from the antibody was monitored for 30 min in running buffer. The surface was regenerated between binding cycles with a 30 μl injection of 10 mM glycine HCl pH 1.7. After subtraction of a blank which contained running buffer only, sensorgrams observed for cytokine binding to anti-IL-33 antibody were analyzed using a 1:1 Langmuir binding model with software supplied by the manufacturer to calculate the kinetics and binding constants.
# human IL-33 (His-tagged) [4] = biological target: T6, human IL-33 (His-tagged); test: as above
# Description: as §2
# cyno IL-33 (His-tagged) [5] = biological target: T5, cyno IL-33 (His-tagged); test: SPR Biacore 8k, Fab amine-coupled to CM5 chip, His-tagged IL-33 analyte, 25 C, 1:1 Langmuir
# Description: as §2
# human IL-33 (His-tagged) [6] = biological target: T6, human IL-33 (His-tagged); test: as above
# Description: as §2
binder,measurement,setting,value
B1,"IC50 (M), IL-33 neutralization activity, HEK-BLUE IL-33 cells (SEAP reporter), human IL-33 at 160 pM",human IL-33,3.6e-11 M
same,"IC50 (M), IL-33 neutralization activity, HEK-BLUE IL-33 cells (SEAP reporter), cyno IL-33 at 300 pM",cyno IL-33,1.6e-10 M
same,Kd,rat IL-33 (His-tagged),1.6 nM
same,koff,rat IL-33 (His-tagged),0.000219 s⁻¹
same,kon,rat IL-33 (His-tagged),140000 M⁻¹ s⁻¹
same,Kd,mouse IL-33 (His-tagged),37.4 nM
same,koff,mouse IL-33 (His-tagged),0.00213 s⁻¹
same,kon,mouse IL-33 (His-tagged),56800 M⁻¹ s⁻¹
same,Kd,cyno IL-33 (His-tagged) [1],0.0392 nM
same,koff,cyno IL-33 (His-tagged) [1],2.24e-05 s⁻¹
same,kon,cyno IL-33 (His-tagged) [1],570000 M⁻¹ s⁻¹
same,Kd,human IL-33 (His-tagged) [2],0.021 nM
same,koff,human IL-33 (His-tagged) [2],2.28e-05 s⁻¹
same,kon,human IL-33 (His-tagged) [2],1.08e+06 M⁻¹ s⁻¹
B2,Kd,cyno IL-33 (His-tagged) [3],0.0345 nM
same,koff,cyno IL-33 (His-tagged) [3],1.82e-05 s⁻¹
same,kon,cyno IL-33 (His-tagged) [3],527000 M⁻¹ s⁻¹
same,Kd,human IL-33 (His-tagged) [4],0.0148 nM
same,koff,human IL-33 (His-tagged) [4],1.26e-05 s⁻¹
same,kon,human IL-33 (His-tagged) [4],858000 M⁻¹ s⁻¹
same,Kd,cyno IL-33 (His-tagged) [5],0.0223 nM
same,koff,cyno IL-33 (His-tagged) [5],7.85e-06 s⁻¹
same,kon,cyno IL-33 (His-tagged) [5],354000 M⁻¹ s⁻¹
same,Kd,human IL-33 (His-tagged) [6],0.0147 nM
same,koff,human IL-33 (His-tagged) [6],9.99e-06 s⁻¹
same,kon,human IL-33 (His-tagged) [6],684000 M⁻¹ s⁻¹
